Measured values taken from patent US20190225698A1 (JIANGSU HENGRUI MEDICINE, published 2019).

Columns and labels:
Experiment in all cases: flow cytometry on transfected HEK293 cells
[1] = biological target: T1, human CD40 expressed on transfected HEK293 cells (human, UniProt P25942 21-277)
T1 construct: whole, on cells

[2] = biological target: T2, human FAS expressed on transfected HEK293 cells (human, UniProt P25445 26-335)
T2 construct: whole, on cells
T2 sequence (looked up): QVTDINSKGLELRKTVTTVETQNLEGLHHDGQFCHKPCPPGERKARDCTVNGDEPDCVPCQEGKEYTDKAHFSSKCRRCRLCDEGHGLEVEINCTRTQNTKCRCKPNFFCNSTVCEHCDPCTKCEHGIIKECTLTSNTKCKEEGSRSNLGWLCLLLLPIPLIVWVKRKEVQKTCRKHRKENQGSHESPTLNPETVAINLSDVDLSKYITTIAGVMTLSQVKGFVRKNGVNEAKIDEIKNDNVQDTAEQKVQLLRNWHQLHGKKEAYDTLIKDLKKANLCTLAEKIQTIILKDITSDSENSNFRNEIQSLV

[3] = biological target: T3, human OX40 expressed on transfected HEK293 cells (human, UniProt P43489 29-277)
T3 construct: whole, on cells
T3 sequence (looked up): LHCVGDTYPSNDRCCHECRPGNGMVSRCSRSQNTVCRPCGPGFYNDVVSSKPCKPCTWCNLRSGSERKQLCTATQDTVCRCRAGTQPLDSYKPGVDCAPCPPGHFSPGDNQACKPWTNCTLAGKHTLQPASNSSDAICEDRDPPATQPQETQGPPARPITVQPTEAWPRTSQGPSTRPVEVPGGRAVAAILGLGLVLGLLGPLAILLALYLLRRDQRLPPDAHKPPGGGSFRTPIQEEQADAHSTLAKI

[4] = biological target: T4, murine TNFRSF1A expressed on transfected HEK293 cells (murine, UniProt P25118 30-454)
T4 construct: whole, on cells
T4 sequence (looked up): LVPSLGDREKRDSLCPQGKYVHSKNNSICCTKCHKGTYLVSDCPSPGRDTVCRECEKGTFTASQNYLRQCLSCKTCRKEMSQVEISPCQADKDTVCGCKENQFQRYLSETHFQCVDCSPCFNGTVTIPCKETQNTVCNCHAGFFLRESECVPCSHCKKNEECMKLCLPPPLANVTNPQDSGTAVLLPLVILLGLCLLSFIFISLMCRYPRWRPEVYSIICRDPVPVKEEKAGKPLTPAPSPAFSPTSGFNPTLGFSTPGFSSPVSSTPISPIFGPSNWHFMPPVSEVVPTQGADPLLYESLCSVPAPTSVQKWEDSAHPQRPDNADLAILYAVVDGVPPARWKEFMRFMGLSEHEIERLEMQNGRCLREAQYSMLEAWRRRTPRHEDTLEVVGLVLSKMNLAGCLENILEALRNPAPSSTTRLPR

[5] = biological target: T5, human TNFRSF1A expressed on transfected HEK293 cells (human, UniProt P19438 30-455)
T5 construct: whole, on cells
T5 sequence (looked up): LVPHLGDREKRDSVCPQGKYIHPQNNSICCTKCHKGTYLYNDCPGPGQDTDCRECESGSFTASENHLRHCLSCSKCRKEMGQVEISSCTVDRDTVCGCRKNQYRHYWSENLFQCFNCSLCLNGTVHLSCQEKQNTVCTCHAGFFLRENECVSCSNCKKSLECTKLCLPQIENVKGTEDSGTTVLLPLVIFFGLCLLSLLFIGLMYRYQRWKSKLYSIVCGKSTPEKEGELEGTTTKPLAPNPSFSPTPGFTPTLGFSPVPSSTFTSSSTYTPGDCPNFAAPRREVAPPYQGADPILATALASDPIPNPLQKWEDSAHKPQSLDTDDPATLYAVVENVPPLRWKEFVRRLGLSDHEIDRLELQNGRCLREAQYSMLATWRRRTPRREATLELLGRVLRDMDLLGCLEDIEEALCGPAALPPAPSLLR

[6] = biological target: T6, murine CD40 expressed on transfected HEK293 cells (murine, UniProt P27512 20-289)
T6 construct: whole, on cells
T6 sequence (looked up): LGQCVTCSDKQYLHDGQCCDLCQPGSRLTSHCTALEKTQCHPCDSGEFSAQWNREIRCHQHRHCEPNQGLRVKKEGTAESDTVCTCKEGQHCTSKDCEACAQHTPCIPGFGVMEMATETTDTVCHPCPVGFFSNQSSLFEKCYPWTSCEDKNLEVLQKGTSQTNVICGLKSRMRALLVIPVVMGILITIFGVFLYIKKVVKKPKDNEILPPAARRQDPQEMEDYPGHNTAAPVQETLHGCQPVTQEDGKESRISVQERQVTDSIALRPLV

[7] = biological target: T7, human CD137 expressed on transfected HEK293 cells (human, UniProt Q07011 24-255)
T7 construct: whole, on cells

[8] = biological target: T8, murine OX40 expressed on transfected HEK293 cells (murine, UniProt P47741 20-272)
T8 construct: whole, on cells
T8 sequence (looked up): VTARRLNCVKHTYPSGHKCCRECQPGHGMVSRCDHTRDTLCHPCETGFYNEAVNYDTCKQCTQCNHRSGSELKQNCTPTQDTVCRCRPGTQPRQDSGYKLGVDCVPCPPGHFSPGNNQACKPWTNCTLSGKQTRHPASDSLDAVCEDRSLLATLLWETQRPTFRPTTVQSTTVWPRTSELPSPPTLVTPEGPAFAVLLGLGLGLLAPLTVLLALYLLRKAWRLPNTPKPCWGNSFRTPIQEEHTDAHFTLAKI

[9] = biological target: T9, murine CD137 expressed on transfected HEK293 cells (murine, UniProt P20334 24-256)
T9 construct: whole, on cells
T9 sequence (looked up): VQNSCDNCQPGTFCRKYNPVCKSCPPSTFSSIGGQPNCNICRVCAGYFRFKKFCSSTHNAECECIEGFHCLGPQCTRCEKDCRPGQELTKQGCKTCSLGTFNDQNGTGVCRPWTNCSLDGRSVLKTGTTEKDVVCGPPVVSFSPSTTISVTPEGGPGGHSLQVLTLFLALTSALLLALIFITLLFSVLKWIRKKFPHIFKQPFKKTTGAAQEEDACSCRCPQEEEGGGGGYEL

Measured: binding result

T1 sequence (P25942 21-277): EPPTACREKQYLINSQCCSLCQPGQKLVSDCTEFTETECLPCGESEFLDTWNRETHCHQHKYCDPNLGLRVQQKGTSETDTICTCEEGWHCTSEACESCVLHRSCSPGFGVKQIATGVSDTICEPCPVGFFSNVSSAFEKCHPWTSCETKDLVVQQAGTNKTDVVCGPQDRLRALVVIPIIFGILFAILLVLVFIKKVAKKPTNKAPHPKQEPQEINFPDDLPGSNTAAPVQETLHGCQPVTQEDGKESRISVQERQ
T7 sequence (Q07011 24-255): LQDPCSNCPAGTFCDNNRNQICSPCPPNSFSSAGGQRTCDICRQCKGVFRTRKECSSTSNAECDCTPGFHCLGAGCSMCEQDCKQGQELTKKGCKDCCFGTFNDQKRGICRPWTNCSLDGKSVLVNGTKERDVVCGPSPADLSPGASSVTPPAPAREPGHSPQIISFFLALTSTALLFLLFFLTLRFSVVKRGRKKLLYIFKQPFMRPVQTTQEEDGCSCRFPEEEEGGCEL

B1: anti-CD27 antibody mAb076 (IgG1 form) (antibody, V domains shown)
VH: EVQLVESGGGLVQPGGSLRLSCAASGFTFSDYGIHWVRQAPGKGLEWIGWINPNRGSTNYAQKFQGRVTISRDNSKNTLYLQLNSLRAEDTAVYYCARDYGYTWYFDVWGQGTLVTVSS
VL: DIQLTQSPSSLSASVGDRVTITCRASQDISSVLAWYQQKPGKAPKLLIYAASSLQSGVPSRFSGSGSGTDFTLTISSLQPEDFATYYCQQRDAWPLTFGQGTKVEIK
notes: Human antibody from phage display
no binding (tested: 100 nM): all assays above

B2: anti-CD27 antibody mAb077 (IgG1 form) (antibody, V domains shown)
VH: EVQLVESGGGLVQPGGSLRLSCAASGFTFSGYGIHWVRQAPGKGLEWIGWINPNRGSTKYAQKFQGRVTISRDNSKNTLYLQLNSLRAEDTAVYYCARDPGYTWYFDVWGQGTLVTVSS
VL: DIQLTQSPSSLSASVGDRVTITCRASQDISSDLAWYQQKPGKAPKLLIYAASTLQSGVPSRFSGSGSGTDFTLTISSLQPEDFATYYCQQRDAWPPTFGQGTKVEIK
notes: as for B1
no binding (tested: 100 nM): all assays above
